Earlier results on 1 molecule are cited in article PMC3565385 (Journal of computer-aided molecular design, 2012).

The series concerns PTH1R. Conditions: ΔΔG = RT ln(Ki mutant/Ki wild-type) from published alanine scanning.

B1: PTH R20A: parathyroid hormone with Arg20 replaced by alanine (peptide, UniProt P01270 32-115, looked up, variant R20A)
Parathyroid hormone: SVSEIQLMHNLGKHLNSMEAVEWLRKKLQDVHNFVALGAPLAPRDAGSQRPRKKEDNVLVESHEKSLGEADKADVNVLTKAKSQ
modifications: Parathyroid hormone
On to B1, for which the “experimental ΔΔG” value was 2.96 kcal/mol.
